Laboratory results reported in the DeepSol protein solubility set.

assay: soluble on expression in E. coli; label from the status in PepcDB or PDB records

Row | Sequence | soluble on expression in E. coli
1 | MGSDKIHHHHHHMKMKEFLDLLNESRLTVTLTGAGISTPSGIPDFRGPNGIYKKYSQNVFDIDFFYSHPEEFYRFAKEGIFPMLQAKPNLAHVLLAKLEEKGLIEAVITQNIDRLHQRAGSKKVIELHGNVEEYYCVRCEKKYTVEDVIKKLESSDVPLCDDCNSLIRPNIVFFGENLPQDALREAIGLSSRASLMIVLGSSLVVYPAAELPLITVRSGGKLVIVNLGETPFDDIATLKYNMDVVEFARRVMEEGGIS | not soluble
2 | MGSDKIHHHHHHMKNLFLFCRAGYEKECAAEIQQRAAEMNVGGFVKTTNNDAYVIYQCFEDDGADTLAKMLPLNSLIFARQMFAASELHSDLPEQDRVGPLVASLLEADVTKCGELRVETPDTNEAKELSAFCRKFTVPLRQGLKKVGVLLDKENGRRPIIHVCFVGPGKAYVGYSLSNNSSPHFMGIPRLRMAADAPSRSSLKLDEAFGAFLTKEEQEMRCRSGLKAVDLGACPGGWTYQLVRRGMMVAAVDNGPMDEKLMETGQVKHYRADGFRFEPPRKNIYWLVCDMVEKPSRVAELMEAWAINGWFKEAIFNLKLPMKSRYKEVRVILDTMGEIFKENEIDYRLQCKHLYHDRDEVTVHLWIFPEKGVSYAEMG | not soluble
3 | MGSDKIHHHHHHMKNLLSTREVAQFLGVNEKMVYTLISDKGLPATKVTGKWLFPAHLVEQWVENSTINFPRRHESAPPAEGVLLVAGSNDILFERTLRLFMDAQPDYIAAFANMGSMGGIKALRRGVCHMATSHLKQEDGAEYNFAHAERELEERPAVVNFCLREQGLLVPRGNPAGISCVADVAGGGLTVANRPLGTGTRLLFDSELAAAGINPARLKGYENEFSRHMDVGLEVLSGRADTAPAIRAVAGLLGLDFIPLGWERFDLLIPRDTFFERHIQLFMGLFTTPEFAALAGQLEGYDTSRAGRVVFPGETLRETRR | not soluble
4 | MGSDKIHHHHHHMKNYKFLVPILLVALLGGSVYKTYSDREKINKQYDNDITQARQNRKLEVYVNAEEDYLDALKLKDSAKLRAELGEMYIEAEDLRTAAKWGESLISEYPKEQVGYEFLIQVYLEQKDYASCFRIKDEADGLKISSKKIEEIISDIKYEYYLEGEYAQVEEFSNGYAAVKKEKKWGYLNSKGHRVIESEFEEAGAFAKEVAPVIDDKGRAFYIDNEGNRKIVIDFVDNIEKLGYMSMDNIFPVNDGKKWSLYSLDSKKKIAGDYDEVSAMGNGVAAVKSDDKWSLIDTKGKKVTKDKYDSVVMDSKGIVCRNDRVFAKQNGYYYLFDSKGNKVVKTKFDDARLFADDGYAAVCVDGKWGFVDKDGKQVIKPQFNEAHSFSNGLAAVRFSNGWGYVDEKGNKVIETGFDDACDFNEQGKTFVKTDDKWQVLTLYLYNHES | not soluble
5 | MGSDKIHHHHHHMKPIQLPLSVRLRDDATFANYYPGANAAALGYVERLCEAEAGWAESLIYLWGHDGVGRSHLLQAACLRFEQFEERTIYLPMADLVQYGPEIFDDLEQCELVCIDDLDVLVGKREWEEGLFHLFNRLRDTGRRLLLAASKSPRELQVKLPDLKSRLTMALIFQLHGLSDEDKLRALQLRASRRGLHLTDEVGRFILNRGSRSMNSLFDLLEQLDRASLQAQRKLTIPFLKETLGW | not soluble
6 | MGSDKIHHHHHHMKQIKIGTCVPGPVAEEWLKGFVGKGFETFSLNFHMSLEGTDLDKLALSTEQILAGTDSKITTLGYYCNPIQYPEHRKTLEKVICTAEKFGATHVSTFAGAWEGKPVESAYEEFGKVFRELAELAEEKGVKLGIENCLMDGTWEHATCNIGFNPKAWEVMFEEVKNDNFGLEWEPTHQMVQLIDPVTELRKWCKKIVHVHGKDATIDWDAVRHGGISGAVPFVWHRMPGFGDTNWRDIISILRSNGYEDDICIEGYHDPVYRGELEMTGQLHALNYLKWCRGGEFTPTPWEK | not soluble
7 | MGSDKIHHHHHHMKRARAATNLPETRQPRSAHFAQAGQRWSDDVDASTTGVSKHDMCFAVASRESVRPYVLPRNKNDMADAEAICEAVTRPNMRFVAVKTAAQQSVLMLHRCRALLVRQRTMLANAIRAHLAEFGIVMPQGIRTLLTALIAPKDEVNDLPHLVRVALAPMAANLIELGQRIKGLEIEIAREHRGNETSRRLETIPGFGVMTSTAMAATVADPTAFKSGREFAAWLGLTPRESSSGGKQRLGGITKMGDGYLRTLLVVGATAVIRFAREEGSAKTAWIRKLMEKKPAKVVAVALANKMARIAWPLMTRGEVYRVIPA | not soluble
8 | MGSDKIHHHHHHMKRGLNLDQWVTWPGEDQWGDAKTILPYPEWRKFLGDDDLRALKGAGFDFLRMPVDPSPFLSDQTAALRDDLYASVLDSVRMINRAGLKVIVDMHLIPAGGSRKIGMAQVMDDPRTFDRYLDMVRKMARTLAGEDPEKVAFEPMNEPIVDCDSDGTSLWPDRQRELFAAARSSATKLTLVLTGACYSAASSLEKIDPKAISDDNVIWTFHSYDPFLLTHQGATWAGDFIPYVTGLPYPLNAVPKAQLDATLDIIRARIKAEAPWTRQSGLLAYLDEQVASMDSPDKLLGLMDAPFKKVEAWAKANGVKPENITLGEFGMIRQEYGNAYVMPAQYRAAYVRDMIARAEAHGFSWSVWSYGGAFGIVDAFNGDKGEPDVMDVIRSLH | not soluble
9 | MGSDKIHHHHHHMKRKITPELSSKDWKEFCSRFHFDNDKLPLIRAIYTAMLPLVDAFAYYSIKQDLPGVSLAHYAYGLVTLGNGVDELSELYLNHEQLEEAYIADCLSLMLLSNAYEQFAKAVEEESSLYAIELSFLGDEYPLELLPEIFEHVSPDGIHLTGSNMLKPLKTAALIIKLDSQKRKNIKELCNTCANCKNLSCPSRKAPGPKLPHTYGAMQIFNIRH | not soluble
10 | MGSDKIHHHHHHMKRPPKKPATDRSFVVALSRGLEVLRAFGPNDGLLGNQELAARTKLPKPTISRLTYTLTKLGYLTQVPRFEKYQLAPAAMSLGYAALANLGVRHLSQPYRDELMQQTGGAVAVGARDRISMIYVGQARSSLTVGVQLDVGSRIPIATTAMGRAYLCALQSEERAVLMKEMREYYGSRWPRIKEGIERSEEMVAKHGFAISVGEWQDDVHAAGVALTLNDGTGPYAFNCGAPAFRFTEERLINDIGPRLVAMVRKIEAALGGVAAPQPRKSDNKRTKGGKVARVVEGIR | not soluble
11 | MGSDKIHHHHHHMKSFVIEDEFWSLFPNAKIGVVICHSIDNSIKDENQYKDMISNSEEEALSYLKNEEFSSNEVIKVWREAFQKFKTKKGARSSIEALLKRVHKGNHIGTINPLVDIYNSISLRYAMPCGGEDIDAFAGDIRLTKAVGNESFVTLGTDKNEPPYEGEIVYKDNEGAICRCFNWRESVRTMLTENTKNAFLCIELIDETRVKEFEDALDTLAKTVQDNLGGNCKISTLDINNKSVVID | not soluble
12 | MGSDKIHHHHHHMKSHIGLIGLAVMGQNLALNIARKGYKVSVYNRTAQRTEEFVKNRVTNEEIEPHYDIESFVKSLERPRKIILMVKAGKPVDDTISQLLPHLEPGDLIIDGGNSHYMDTERRFKELSEKGILFLGMGVSGGEYGALHGPSLMPGGSREAYNLVEEILLEIAAKTEDGPCCTYVGERSAGHFVKMVHNGIEYAIMQAIAEVYHIMRDVLSLSSEEMSSIFEEWNRGELSSFLVEITYKILRKKDEETGKPMVDVILDKAEQKGTGKWTSQAALDLGIPTPSINLAVVERVISHFKDIRTRLSKLYNKRRSATQGSEEFLRDLRNSLFFAMFMAFSQGMWLIAEASKEFGYGVSLSEVLRIWKGGCIIRAKLIDTLRRYISNENAYLLENEEVMNLLKGKIDSLKNILKASIENEIPVPVLSSSYNYFMSLTEERLPANLIQAQRDFFGAHTFERVDREGVFHINWEEGEIG | not soluble
13 | MGSDKIHHHHHHMKSIIHSTENNNFYLYDTQRILSMLIHPELKKIHEKSTDINIDAYYLKKYSYLVNHGFFGEAKPFEFKANISENSIKENITQTKVIVFEITDYCNLKCKYCSLGDLYNFSKKESKNINIKYALNFLRYIFNVKHKKTKLTISFFGGEPLVNFPAIQQIIEEAKLLNKNKKLDLMFNMTTNATLIHKYIDFIVENNIELLISFDGNEKAHSYRTYASNNKNSFHDVLMNTDMIKLKHPSYFDKYVNFNAVLNNRNSIKGIYEFIYNRYGKIPRISQLSSDHINLNKKNIFDDIFHSRKISEKEFQKEGSDVLPIVSNRLIPFNESKKFLKHYSLNLYLSNTLYLLYDLIDSFPTGTCLPFQTRIFLNTHNNLLPCEKVSYKNFLGKVNDHVFINIPEIVQRYNSYYVHCKKVCQYCYGGRACSTCLLSLDNLDQLGVEEFVCPDFQNQKTFEDKLNRIFSYLEKCPSEFFQIINHLITE | not soluble
14 | MGSDKIHHHHHHMKTFLVCALEPSANLHLKEVLKAYKKDFGEFELHGIYDESLCKEFDLNSKPLYSSHEFSAMGFIEVLPLIFKAKKAIKELANLSFTQKINGILCIDSPAFNIPFAKALKKAGSKIPRIYYILPQVWAWKKGRIPIIESHFDILASILPFDNQFFNKSTYIGHPLLDEIKEFKNQEDINHTFSKKDDEKTIAFLPGSRRSEIRRLMPIFKELSQKFKGKKILCVPSFNLEKLEVYGDISEFKIESNTPKVLKKADFAFICSGTATLEAALVGTPFVLAYKAKAIDIFIAKLFVKLKHIGLANIFCDFAGKEALNPEFLQDKVNVLNLYEAYNKYDYKAFFAKVDFLKEYLQFGSAKNLAKILNEI | not soluble
15 | MGSDKIHHHHHHMKTVRIETFGCKVNQYESEYMAEQLEKAGYVVLPDGNAAYYIVNSCAVTKEVEKKVKRLIKSIRNRNKNAKIILTGCFAQLSPDEAKNLPVDMVLGIDEKKHIVDHINSLNGKQQVVVSEPGRPVYEKVKGSFEDRTRSYIKVEDGCDNTCTYCAIRLARGTRIRSKPLEIFKEEFAEMVMKGYKEIVITGVNLGKYGKDMGSSLAELLKVIEKVPGDYRVRLSSINVEDVNDEIVKAFKRNPRLCPHLHISVQSGSDDVLKRMGRKYKISDFMRVVDKLRSIDPDFSITTDIIVGFPGETDADFQRTLELVEKVEFSRVHIFRFSPRPGTPASRMEGGVPESKKKERLDVLKEKAKDVSIRYRKRIIGKERKVLAEWYVMKGVLSGYDEYYVKHEFVGNRVGEFHSVRVKSLSEEGVISCRADMVEGKVPARG | not soluble
16 | MGSDKIHHHHHHMKVLLTRPEGRNQQMADALTQLGIGYHLCPLLEITPSNTPPKASFFSADKLVFISANAVYFAANNLNNHFPMHCEYFAVGEATQMALAEYQVVSQSAPSSQQDSEGLLSLSQLQDVELQKITIVRGEGGRETLAQTLSERGANVDYWQVYQRSKPALDPKSVCQQWQDLGIDTLVLTSGEALANLMELVPKELFAWLRSCHMIVPSHRVQVQAISQGFHRVSNANGASTQAILTALAL | not soluble
17 | MGSDKIHHHHHHMKVLQYFENPGLISRSGIGHAQRLQQEELSYTDIVLDTSPFSKDYDLIDVNTYGPKSLAMVAKARLQNRKVVYHAHSTYEDFRNSFIGSNFLSKPFKKHLIKAYRQADLIITPTPYAKSLLRSYGLKQPIVPISNGVRVSSYRRNKSKIIKFRQFLNLKENDKRKIIISVGLYFQRKGIMDFVELARRNPEHLFVWFGYTDLRIIPKKIRETVKKDHPDNCVFAGYITGDVLQGAYSGADLFLYPSYEETEGIVVLEALASSQKVLVRDIPVYNDWLHDGFDCYKASNLDEFDKRLNEILAGKVKNVSKAGHEVALKRDVSLIGPQLKKAYEEALSLPSQESR | not soluble
18 | MGSDKIHHHHHHMKVNTALGILAGKSSQFILKKLGRGTTLPGKIALKFDKHILDSLAKDYEVVVITGTNGKTLTTALTVGILQEAFGEITTNTSGANMITGITATFLSAKKNKKGKKIAVLEIDEASLARVTDFIKPSLIVFTNIFRDQMDRYGEIYTTYQMILDGAAKAPQATILANGDSPLFNSTNVINPVKYYGFATEEHEPRLAHYNTEGVLCPHCHQIIQYKLNTYANLGSYICNNCGFCRPELDYKLTDLKEITNTSSTFAIDGQDYKINIGGLYNIYNALAAVSVAAFFGVTPEKIKAGFDKSKAVFGRQETFKLGDKDCTLVLIKNPVGATQAIEMMKLAPYDFSLSVLLNANYADGIDTSWIWDADFEQITQMDIPQVFAGGVRSSEIARRLRVTGYPENQITETPKLEDIMALIEQSSSQHAYILATYTAMLEFRDLLAQRQAVGKEMK | not soluble
